Results reported in US10800813.
Numbered stars: 1 amine (or outer) side, 2 acyl side, 3 side chain; on linkers, the order of the positions; unused ones are H or OH. Bridge positions count the residues as written; N and C are the ends. Ends that are not written are not given here. TBMB = c1c(C[*:1])cc(C[*:3])cc1C[*:2]

Biological target: Human factor XIa (human), P03951
Test: enzyme inhibition assay
Details: remark: other sources report otherwise

Ki: 75 µM
B1: 2A10 (peptide)
peptide: ACTYPYKCLHQNLCA
modifications: linker 2-8-14 via TBMB
